In article PMC10057847, “Precision engineering of biological function with large-scale measurements and machine learning” (PLOS ONE, 2023):

Test system: eYFP under the control of the lactose operator (lacO)
Assay: in vivo dose-response curves of LacI variants to IPTG measured with flow cytometry (eYFP output), fit to the Hill equation
Format: cell-based, E. coli
Conditions: for dose-response phenotype (in words): IPTG dose-response by flow cytometry; for n: the Hill coefficient: IPTG dose-response; for log_g0: the base-10 logarithm of G0 (in MEF) / log_ginf: the base-10 logarithm of G∞ (in MEF): value is log10; for log_ginf: the base-10 logarithm of G∞ (in MEF): saturating output
Method: Dose-response curves were measured with flow cytometry using E. coli MG1655Δlac transformed with variants of the pVER plasmid, described previously. The plasmid contained different variants of the lacI coding DNA sequence (CDS), as described in the text, and an expression cassette with enhanced yellow fluorescent protein (eYFP) under the control of the lactose operator (lacO). The lacI CDS was verified with Sanger sequencing for each variant.
All cultures were grown in a rich M9 media (3 g/L KH2PO4, 6.78 g/L Na2HPO4, 0.5 g/L NaCl, 1 g/L NH4Cl, 0.1 mmol/L CaCl2, 2 mmol/L MgSO4, 4% glycerol, and 20 g/L casamino acids) supplemented with 50 μg/mL kanamycin.
For flow cytometry measurements, E. coli cultures were grown in a laboratory automation system that included an automated liquid handler (Hamilton, STAR), an automated plate sealer (4titude, a4S), an automated de-sealer (Brooks, XPeel), and two multi-mode plate readers (BioTek, Neo2SM).
Cultures were grown in clear polystyrene 96-well plates with 1.1 mL square wells (4titude, 4ti-0255). The culture volume per well was 0.5 mL. Before incubation, each 96-well growth plate was sealed by the automated plate sealer with a gas permeable membrane (4titude, 4ti-0598). Growth plates were incubated in one of the multi-mode plate readers at 37°C with a 1°C gradient applied from the bottom to the top of the incubation chamber to minimize condensation on the inside of the membrane. The plate readers were set for double-orbital shaking at 807 cycles per minute. Optical density at 600 nm (OD600) was measured every 5 minutes during incubation, with continuous shaking applied between measurements (optical density at 700 nm and YFP fluorescence were also measured every 5 minutes). After incubation, the automated de-sealer was used to remove the gas-permeable membrane from each 96-well plate to enable automated passaging of cultures and sample preparation for flow cytometry measurements.
For each measurement, starter cultures were prepared from glycerol freezer stock in 5 mL of rich M9 media in a 14 mL snap-cap culture tubes. Starter cultures were incubated at 37°C with orbital shaking at 300 rpm for between 4 h and 24 h prior to loading the automation system. The automation system then prepared 96-well growth plates, sealed and de-sealed the growth plates, incubated the growth plates, and prepared flow cytometry sample plates. The automated culture protocol consisted of the following steps: […]

[1] = basal output, Hill fit of cytometry data, posterior mean
[2] = Hill fit of cytometry data, posterior mean

Row | Molecule | EC50 (IPTG as ligand, Hill fit of cytometry data, posterior mean, read-out: log_ec50: the base-10 logarithm of EC50 (converted)) [nM] | dose-response phenotype (in words) | n: the Hill coefficient (Hill fit of cytometry data) | log_g0: the base-10 logarithm of G0 (in MEF) [1] [MEF] | log_ginf: the base-10 logarithm of G∞ (in MEF) [2] [MEF] | G0 (basal output) [MEF]
1 | pVER-IPTG-WT(V136E/G200C): LacI variant: V136E G200C (protein, UniProt P03023 1-360, looked up, variant V136E G200C) Lactose operon repressor: MKPVTLYDVAEYAGVSYQTVSRVVNQASHVSAKTREKVEAAMAELNYIPNRVAQQLAGKQSLLIGVATSSLALHAPSQIVAAIKSRADQLGASVVVSMVERSGVEACKAAVHNLLAQRVSGLIINYPLDDQDAIAEEAACTNVPALFLDVSDQTPINSIIFSHEDGTRLGVEHLVALGHQQIALLAGPLSSVSARLRLACWHKYLTRNQIQPIAEREGDWSAMSGFQQTMQMLNEGIVPTAMLVANDQMALGAMRAITESGLRVGADISVVGYDDTEDSSCYIPPLTTIKQDFRLLGQTSVDRLLQLSQGQAVKGNQLLPVSLVKRKTTLAPNTQTASPRALADSLMQLARQVSRLESGQ | 2480 | band-stop dose-response curve | 2.118 | 3.294 | 4.168 | 
2 | pVER-IPTG-WT: wild-type LacI (lac repressor) on the pVER plasmid (protein, UniProt P03023 1-360, looked up) Lactose operon repressor: MKPVTLYDVAEYAGVSYQTVSRVVNQASHVSAKTREKVEAAMAELNYIPNRVAQQLAGKQSLLIGVATSSLALHAPSQIVAAIKSRADQLGASVVVSMVERSGVEACKAAVHNLLAQRVSGLIINYPLDDQDAIAVEAACTNVPALFLDVSDQTPINSIIFSHEDGTRLGVEHLVALGHQQIALLAGPLSSVSARLRLAGWHKYLTRNQIQPIAEREGDWSAMSGFQQTMQMLNEGIVPTAMLVANDQMALGAMRAITESGLRVGADISVVGYDDTEDSSCYIPPLTTIKQDFRLLGQTSVDRLLQLSQGQAVKGNQLLPVSLVKRKTTLAPNTQTASPRALADSLMQLARQVSRLESGQ |  |  | 1.559 | 2.097 | 4.44 | 158
3 | pVER-IPTG-WT(S279T/V136E): LacI variant: V136E S279T (protein, UniProt P03023 1-360, looked up, variant V136E S279T) Lactose operon repressor: MKPVTLYDVAEYAGVSYQTVSRVVNQASHVSAKTREKVEAAMAELNYIPNRVAQQLAGKQSLLIGVATSSLALHAPSQIVAAIKSRADQLGASVVVSMVERSGVEACKAAVHNLLAQRVSGLIINYPLDDQDAIAEEAACTNVPALFLDVSDQTPINSIIFSHEDGTRLGVEHLVALGHQQIALLAGPLSSVSARLRLAGWHKYLTRNQIQPIAEREGDWSAMSGFQQTMQMLNEGIVPTAMLVANDQMALGAMRAITESGLRVGADISVVGYDDTEDTSCYIPPLTTIKQDFRLLGQTSVDRLLQLSQGQAVKGNQLLPVSLVKRKTTLAPNTQTASPRALADSLMQLARQVSRLESGQ |  | more complicated non-monotonic dose-response (high-low-high-low) |  |  |  | 
4 | pVER-IPTG-WT(V136E): LacI variant: V136E (protein, UniProt P03023 1-360, looked up, variant V136E) Lactose operon repressor: MKPVTLYDVAEYAGVSYQTVSRVVNQASHVSAKTREKVEAAMAELNYIPNRVAQQLAGKQSLLIGVATSSLALHAPSQIVAAIKSRADQLGASVVVSMVERSGVEACKAAVHNLLAQRVSGLIINYPLDDQDAIAEEAACTNVPALFLDVSDQTPINSIIFSHEDGTRLGVEHLVALGHQQIALLAGPLSSVSARLRLAGWHKYLTRNQIQPIAEREGDWSAMSGFQQTMQMLNEGIVPTAMLVANDQMALGAMRAITESGLRVGADISVVGYDDTEDSSCYIPPLTTIKQDFRLLGQTSVDRLLQLSQGQAVKGNQLLPVSLVKRKTTLAPNTQTASPRALADSLMQLARQVSRLESGQ |  | reduced G∞ but G0 and EC50 similar to the wild type |  |  |  | 
